Target: C2 epitope-peptide (…, SEQ ID NO:21) / human HLA-A2 MHC class I molecule complex on the cell surface (human; human CMV)

## TCR CMV-pp65-PE STAR™ multimer reagent (Altor Bioscience Corp., Miramar, Fla., U.S.)
  iMFI: 10100 RFU
  percentage of pMHC I complex presenting cells: 35%

— US20220354938A1
